Data on 27 molecules can be found in patent publication US20090281042A1 (priority 2005, published 2009).

A word on the Km: it is the substrate concentration at which the rate is half of its maximum. For orientation: kcat means the maximal rate divided by the concentration of active sites.

Like-named read-outs stand apart in the source and are kept apart here. Ends that are not written are not given here.

The target in experiment [1] is T1, HCV NS3 protease (Hepatitis C virus genotype 1b, UniProt P26663).
T1 construct: In the case of HCV NS3 protease the site is NS5A/B
T1 sequence (P26663 1027-1208, other chains not shown): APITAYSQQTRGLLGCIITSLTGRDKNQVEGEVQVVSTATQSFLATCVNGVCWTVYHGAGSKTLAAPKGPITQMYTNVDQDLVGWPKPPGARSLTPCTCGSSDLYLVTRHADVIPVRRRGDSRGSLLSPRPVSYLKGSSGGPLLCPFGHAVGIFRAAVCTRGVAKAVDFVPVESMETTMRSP
The conditions noted are these: mean ± S.D., cited from earlier work.

For experiment [2], the target named is T1, HCV NS3 protease. The conditions noted are these: cited from earlier work.
For another experiment, the target named is HRV 3C protease (Human rhinovirus 16, UniProt Q82122). It is filed as biochemical, HRV 16.
The target of a further experiment is SARS 3CL protease (Severe acute respiratory syndrome coronavirus, UniProt P0C6X7).
Another experiment deals with E. coli lysate. It is filed as biochemical. The following applies: FIG. 5.
[3] abbreviates: Table 7, NS3 + Pep4A, modified decamer peptides vs wild type DEMEECASHL
The mark [4] stands for this setting: Table 7, NS3 alone, modified decamer peptides vs wild type DEMEECASHL
[5] abbreviates: NS3 + Pep4A, P6 and P1′-modified NS4A/NS4B decamer peptides.
The mark [6] stands for this setting: NS3 alone, P6 and P1′-modified NS4A/NS4B decamer peptides.

Consider `O=C(O)CN(CCN(CC(=O)O)CC(=O)O)CC(=O)O` [EDTA], for which the “effect of protease inhibitor on cleavage of Pep1” value (from here on “effect of protease inhibitor”) in the experiment on HeLa lysate is “partially inhibited”.

For `O=C(O)CN(CCOCCOCCN(CC(=O)O)CC(=O)O)CC(=O)O` [EGTA], the “effect of protease inhibitor” value in the experiment on HeLa lysate (Pep1 as substrate) is “partially inhibited”.

For the molecule `O=S(=O)(F)Cc1ccccc1` [PMSF], in the experiment on HeLa lysate (Pep1 as substrate), the “effect of protease inhibitor” value is reported as “relative insensitivity”.

AEMEECASHL: in the experiment with HCV NS3 protease [1] (setting [3]), the Km is 55 ± 11 µM and the kcat is 0.90 ± 0.06 min⁻¹. In addition, in the experiment with HCV NS3 protease [1] (setting [4]), the Km is 125 ± 28 µM and the kcat was 0.10 ± 0.02 min⁻¹.

Turning to Aprotinin, the “effect of protease inhibitor” value in the experiment with HeLa lysate (Pep1 as substrate) is reported as “relative insensitivity”.

Regarding BTLEFCSñSY [Pep B5s], the Keat on HCV NS3 protease [2] (absence (−) of 150 mM Nacl) was 23 min⁻¹; at HCV NS3 protease [2] (presence (+) of 150 mM Nacl) it was 36 min⁻¹. Also, the Michaelis constant (Km) is 3.5 µM on HCV NS3 protease [2] (absence (−) of 150 mM Nacl) and 27 µM at HCV NS3 protease [2] (presence (+) of 150 mM Nacl).

Consider DAMEECASHL, for which, in the experiment with HCV NS3 protease [1] (setting [3]), the Km was 143 ± 27 µM and the kcat is 2.73 ± 0.84 min⁻¹. In addition, in the experiment with HCV NS3 protease [1] (setting [4]), the Km was 569 ± 150 µM and the kcat is 0.86 ± 0.46 min⁻¹.

On to DEAEECASHL, for which, in the experiment with HCV NS3 protease [1] (setting [3]), the Km was 124 ± 22 µM and the kcat is 2.13 ± 0.30 min⁻¹. In addition, in the experiment with HCV NS3 protease [1] (setting [4]), the Km was 409 ± 24 µM and the kcat is 0.30 ± 0.02 min⁻¹.

For DEMAECASHL, in the experiment with HCV NS3 protease [1] (setting [3]), the Km is 190 ± 35 µM and the kcat was 2.81 ± 0.66 min⁻¹. In the experiment with HCV NS3 protease [1] (setting [4]), the Km is 790 ± 205 µM and the kcat is 0.33 ± 0.06 min⁻¹.

Take DEMEACASHL: in the experiment with HCV NS3 protease [1] (setting [3]), the Km was 148 ± 44 µM and the kcat is 2.59 ± 0.60 min⁻¹. Further, in the experiment with HCV NS3 protease [1] (setting [4]), the Km was 171 ± 23 µM and the kcat is 0.26 ± 0.01 min⁻¹.

For DEMEEAASHL, the kcat result in the experiment with HCV NS3 protease [1] (setting [3]) and with HCV NS3 protease [1] (setting [4]) was “not cleaved” in each case.

DEMEECAAHL: in the experiment with HCV NS3 protease [1] (setting [3]), the Km was 144 ± 5.6 µM and the catalytic constant (kcat) was 3.08 ± 0.15 min⁻¹. In the experiment with HCV NS3 protease [1] (setting [4]), the Km is 191 ± 11 µM and the kcat was 0.67 ± 0.04 min⁻¹.

On to DEMEECASAL, for which, in the experiment with HCV NS3 protease [1] (setting [3]), the Km is 130 ± 15 µM and the kcat was 3.61 ± 0.96 min⁻¹. Further, in the experiment with HCV NS3 protease [1] (setting [4]), the Km was 231 ± 39 µM and the turnover number (kcat) is 0.85 ± 0.16 min⁻¹.

Regarding DEMEECASHA, in the experiment with HCV NS3 protease [1] (setting [3]), the Km was 219 ± 10 µM and the kcat was 3.00 ± 0.94 min⁻¹. Further, in the experiment with HCV NS3 protease [1] (setting [4]), the Km is 260 ± 37 µM and the kcat is 0.58 ± 0.12 min⁻¹.

With DEMEECASHL, the Km in the experiment with HCV NS3 protease [1] (setting [5]) is 42.8 ± 4.1 µM; in the experiment with HCV NS3 protease [1] (setting [6]), 105 ± 20 µM; with HCV NS3 protease [1] (setting [3]), 42.8 ± 4.1 µM; in the experiment with HCV NS3 protease [1] (setting [4]), 105 ± 20 µM. In addition, the kcat with HCV NS3 protease [1] (setting [5]) is 1.4 ± 0.07 min⁻¹; with HCV NS3 protease [1] (setting [6]), 0.26 ± 0.03 min⁻¹; with HCV NS3 protease [1] (setting [3]), 1.40 ± 0.07 min⁻¹; with HCV NS3 protease [1] (setting [4]) it was 0.26 ± 0.03 min⁻¹.

Regarding DEMEECASHL [NS4A/4Bs], in the experiment with HCV NS3 protease [2] (absence (−) of 150 mM Nacl), the Keat is 4 min⁻¹ and the Km was 10 µM. In the experiment with HCV NS3 protease [2] (presence (+) of 150 mM Nacl), the Keat is 4 min⁻¹ and the Km is 500 µM.

Turning to DEMEECFSHL, in the experiment with HCV NS3 protease [1] (setting [5]), the Km is 156 ± 54 µM and the kcat is 0.20 ± 0.02 min⁻¹.

As for DEMEECSSHL, in the experiment with HCV NS3 protease [1] (setting [5]), the Km is 246 ± 54 µM and the kcat is 1.66 ± 0.22 min⁻¹. In the experiment with HCV NS3 protease [1] (setting [6]), the Km was 273 ± 21 µM and the kcat is 0.32 ± 0.01 min⁻¹.

With EDVVaCSñSY [B14s(NS5A/B)], at HCV NS3 protease [2] (absence (−) of 150 mM Nacl), the Keat was 34 min⁻¹ and the Michaelis-Menten constant (Km) was 4 µM. Moreover, on HCV NS3 protease [2] (presence (+) of 150 mM Nacl), the Keat was 47 min⁻¹ and the Km was 10 µM.

Regarding EEMEECASHL, the Km with HCV NS3 protease [1] (setting [5]) was 166 ± 15 µM; with HCV NS3 protease [1] (setting [6]), 254 ± 44 µM. Also, the kcat is 2.89 ± 0.20 min⁻¹ in the experiment with HCV NS3 protease [1] (setting [5]) and 0.64 ± 0.04 min⁻¹ in the experiment with HCV NS3 protease [1] (setting [6]).

Consider “ENSVPCSñSY (not fully specified (C-terminus); printed as ENSVPCSñSY; also: code ñ has no stated meaning) [Pep B28s, substrate peptide for HCV NS3 protease based on selected cleavage site]”, for which, in the experiment with HCV NS3 protease [2] (absence (−) of 150 mM Nacl), the Keat was 4 min⁻¹ and the Km is 15 µM. Further, in the experiment with HCV NS3 protease [2] (presence (+) of 150 mM Nacl), the Keat was 14.5 min⁻¹ and the Km was 56 µM.

With “EQVVRCSñSY (not fully specified (C-terminus); printed as EQVVRCSñSY; also: code ñ has no stated meaning) [Pep B8s, substrate peptide for HCV NS3 protease based on selected cleavage site]”, in the experiment with HCV NS3 protease [2] (absence (−) of 150 mM Nacl), the Keat was 3 min⁻¹ and the Km was 7 µM. In the experiment with HCV NS3 protease [2] (presence (+) of 150 mM Nacl), the Keat was 10.5 min⁻¹ and the Km was 21 µM.

On to “ERLVLCSñSY (not fully specified (C-terminus); printed as ERLVLCSñSY; also: code ñ has no stated meaning) [Pep B19s, substrate peptide for HCV NS3 protease based on selected cleavage site]”, for which, in the experiment with HCV NS3 protease [2] (absence (−) of 150 mM Nacl), the Keat is 30 min⁻¹ and the Michaelis constant (Km) was 11 µM. Also, in the experiment with HCV NS3 protease [2] (presence (+) of 150 mM Nacl), the Keat was 49 min⁻¹ and the Km was 12 µM.

With “ERVVLCSñSY (not fully specified (C-terminus); printed as ERVVLCSñSY; also: code ñ has no stated meaning) [Pep B15s, substrate peptide for HCV NS3 protease based on selected cleavage site]”, in the experiment with HCV NS3 protease [2] (absence (−) of 150 mM Nacl), the Keat is 30 min⁻¹ and the Km is 30 µM. For the same molecule, in the experiment with HCV NS3 protease [2] (presence (+) of 150 mM Nacl), the Keat was 44.5 min⁻¹ and the Km is 13 µM.

For the molecule KEMEECASHL, the Km in the experiment with HCV NS3 protease [1] (setting [5]) is 449 ± 91 µM; with HCV NS3 protease [1] (setting [6]), 1050 ± 430 µM. Moreover, the kcat in the experiment with HCV NS3 protease [1] (setting [5]) is 2.68 ± 0.02 min⁻¹; with HCV NS3 protease [1] (setting [6]) it was 0.26 ± 0.10 min⁻¹.

For NEMEECASHL, in the experiment with HCV NS3 protease [1] (setting [5]), the Km was 188 ± 44 µM and the kcat is 2.90 ± 0.46 min⁻¹. Further, in the experiment with HCV NS3 protease [1] (setting [6]), the Km was 630 ± 62 µM and the kcat is 0.37 ± 0.25 min⁻¹.

“Pep1: designed fluorescent (EDANS/DABCYL) 3C protease substrate based on multiple HRV 3C cleavage sites and bioinformatics, Table 14 (LEALFQGPDSQ; not fully specified)”: in the experiment with HRV 3C protease, the “duration of linear kinetics” value is reported as “at least 3 minutes”, the “effect of nasal wash on substrate cleavage by recombinant HRV 3C” value is reported as “absence of effect”, the “lower limit of protease detection” value was 0.5 to 1.0 nM and the “specificity of substrate for cleavage with HRV 3C protease” value was “absolute specificity”. Also, in the experiment with HRV 3C protease, the “substrate cleavage compared to the native cleavage site (Ori 2)” value was “superior substrate cleavage” and the “substrate exhibiting the most rapid kinetics out of Pep 1-Pep 9” value is on record as “most rapid kinetics”. The “cleavage reaction with SARS 3CL lysate” value with SARS 3CL protease was “absence of any detectable cleavage reaction”. The “cleavage reaction with E. coli lysate” value in the experiment with E. coli lysate is on record as “absence of any detectable cleavage reaction”.
